The values that follow come from PMC3834811.

The series has as its target AtWRKY50 DBD_K26Q (Arabidopsis thaliana, UniProt Q8VWQ5 =M+99-173, K123Q;internal_change). Nature of the series: DPI-ELISA. A general note: An ELISA detects its analyte on a solid surface through an enzyme-linked reagent.

B1: W2 (dsDNA)
DNA 1: AAATTATTCAGCCATCAAAAGTTGACCAATAAT
DNA 2: ATTATTGGTCAACTTTTGATGGCTGAATAATTT
In the case of B1, the binding result is “binds”.
